According to article PMC11233575, “Unlocking the function promiscuity of old yellow enzyme to catalyze asymmetric Morita-Baylis-Hillman reaction” (Nature Communications, 2024):

Experiments:
[1] = substrate: O=Cc1ccc([N+](=O)[O-])cc1; experiment: initial velocity of MBH adduct formation by HPLC, Michaelis-Menten fit; assay type: biochemical, Geobacillus kaustophilus; details: 5 mM 2-cyclopenten-1-one, PBS pH 10.0, 3% methanol, 25 °C
From the text: (§1) initial velocity of MBH adduct formation by HPLC, Michaelis-Menten fit on GkOYE

[2] = substrate: O=C1C=CCC1; experiment: as above; assay type: biochemical, Geobacillus kaustophilus; details: 4 mM 4-nitrobenzaldehyde, PBS pH 10.0, 3% methanol, 25 °C
From the text: as §1

[3] = target: the molecule itself; experiment: crystal structure; apo-GkOYE.8 at 15 mg/mL, hanging drop, 0.1 M glycine pH 9.0, 25% (w/v) polyethylene glycol 2000, 15% (w/v) glycerol, 20 °C; 3.11 Å
[4] = GkOYE.8, MBH reaction, no FMN, covalent intermediate at C26

B1: GkOYE.8 (GkOYE^Q102A/Y169F/R215A/R308A) (enzyme, Geobacillus kaustophilus)
chain: MNTMLFSPYTIRGLTLKNRIVMSPMCMYSCDTKDGAVRTWHKIHYPARAVGQVGLIIVEATGVTPQGRISERDLGIWSDDHIAGLRELVGLVKEHGAAIGIALAHAGRKSQVPGEIIAPSAVPFDDSSPTPKEMTKADIEETVQAFQNGARRAKEAGFDVIEIHAAHGFLINEFLSPLSNRRQDEYGGSPENRYRFLGEVIDAVREVWDGPLFVAISASDYHPDGLTAKDYVPYAKRMKEQGVDLVDVSSGAIVPARMNVYPGYQVPFAELIRREADIPTGAVGLITSGWQAEEILQNGRADLVFLGAELLRNPYWPYAAARELGAKISAPVQYERGWRF
notes: FMN-free (apo); Expressed from the plasmid pET28a-GkOYE.8; also called apo-GkOYE.8; source: E. coli BL21(DE3), purified (Strep-Tactin column; HisTrap HP column for crystallization)
For B1, the Km ([1]; GkOYE.8, MBH reaction, no FMN) was 15.98 mM, the kcat ([1]; GkOYE.8, MBH reaction, no FMN) was 1.65 h⁻¹ and the kcat/Km ([1]; GkOYE.8, MBH reaction, no FMN) was 0.0278 M⁻¹ s⁻¹. For the same protein, the Km [2, 4] was 4.28 mM, the kcat [2, 4] was 0.64 h⁻¹ and the kcat/Km [2, 4] was 0.0417 M⁻¹ s⁻¹. For the same protein, the “stoichiometry N” value [3] was 2.

B2: GkOYE (Geobacillus kaustophilus HTA426; D247I/G62W/H167A/Q102A/R215A/R308A/Y169F) (protein)
chain: MNTMLFSPYTIRGLTLKNRIVMSPMCMYSCDTKDGAVRTWHKIHYPARAVGQVGLIIVEATWVTPQGRISERDLGIWSDDHIAGLRELVGLVKEHGAAIGIALAHAGRKSQVPGEIIAPSAVPFDDSSPTPKEMTKADIEETVQAFQNGARRAKEAGFDVIEIHAAAGFLINEFLSPLSNRRQDEYGGSPENRYRFLGEVIDAVREVWDGPLFVAISASDYHPDGLTAKDYVPYAKRMKEQGVDLVIVSSGAIVPARMNVYPGYQVPFAELIRREADIPTGAVGLITSGWQAEEILQNGRADLVFLGAELLRNPYWPYAAARELGAKISAPVQYERGWRF
notes: recombinant, Strep-tagged, pET28a, E. coli BL21(DE3); Strep-Tactin purified; dimer in crystal
In the case of B2, the Km ([1]; GkOYE.11, MBH reaction) is reported as 11.22 mM, the kcat ([1]; GkOYE.11, MBH reaction) is reported as 1.72 h⁻¹ and the kcat/Km ([1]; GkOYE.11, MBH reaction) is reported as 0.0417 M⁻¹ s⁻¹. For the same protein, the Km ([2]; GkOYE.11, MBH reaction) was 1.70 mM, the kcat ([2]; GkOYE.11, MBH reaction) was 0.7 h⁻¹ and the kcat/Km ([2]; GkOYE.11, MBH reaction) was 0.114 M⁻¹ s⁻¹.

B3: GkOYE (Geobacillus kaustophilus HTA426; G62N/Q102A/R215A/R308A/Y169W) (protein)
chain: MNTMLFSPYTIRGLTLKNRIVMSPMCMYSCDTKDGAVRTWHKIHYPARAVGQVGLIIVEATNVTPQGRISERDLGIWSDDHIAGLRELVGLVKEHGAAIGIALAHAGRKSQVPGEIIAPSAVPFDDSSPTPKEMTKADIEETVQAFQNGARRAKEAGFDVIEIHAAHGWLINEFLSPLSNRRQDEYGGSPENRYRFLGEVIDAVREVWDGPLFVAISASDYHPDGLTAKDYVPYAKRMKEQGVDLVDVSSGAIVPARMNVYPGYQVPFAELIRREADIPTGAVGLITSGWQAEEILQNGRADLVFLGAELLRNPYWPYAAARELGAKISAPVQYERGWRF
notes: as for B2
B3 showed a Km ([1]; GkOYE.13, MBH reaction) of 12.10 mM, a kcat ([1]; GkOYE.13, MBH reaction) of 1.66 h⁻¹ and a kcat/Km ([1]; GkOYE.13, MBH reaction) of 0.0389 M⁻¹ s⁻¹. It also gave a Km ([2]; GkOYE.13, MBH reaction) of 1.91 mM, a kcat ([2]; GkOYE.13, MBH reaction) of 0.68 h⁻¹ and a kcat/Km ([2]; GkOYE.13, MBH reaction) of 0.1 M⁻¹ s⁻¹.

B4: GkOYE (Geobacillus kaustophilus HTA426; G62W/Q102A/R215A/R308A/Y169F) (protein)
chain: MNTMLFSPYTIRGLTLKNRIVMSPMCMYSCDTKDGAVRTWHKIHYPARAVGQVGLIIVEATWVTPQGRISERDLGIWSDDHIAGLRELVGLVKEHGAAIGIALAHAGRKSQVPGEIIAPSAVPFDDSSPTPKEMTKADIEETVQAFQNGARRAKEAGFDVIEIHAAHGFLINEFLSPLSNRRQDEYGGSPENRYRFLGEVIDAVREVWDGPLFVAISASDYHPDGLTAKDYVPYAKRMKEQGVDLVDVSSGAIVPARMNVYPGYQVPFAELIRREADIPTGAVGLITSGWQAEEILQNGRADLVFLGAELLRNPYWPYAAARELGAKISAPVQYERGWRF
notes: as for B2
B4 was tested, and the Km ([1]; GkOYE.9, MBH reaction) was 12.44 mM, the kcat ([1]; GkOYE.9, MBH reaction) was 1.59 h⁻¹ and the kcat/Km ([1]; GkOYE.9, MBH reaction) was 0.0361 M⁻¹ s⁻¹. For the same protein, the Km ([2]; GkOYE.9, MBH reaction) was 2.00 mM, the kcat ([2]; GkOYE.9, MBH reaction) was 0.65 h⁻¹ and the kcat/Km ([2]; GkOYE.9, MBH reaction) was 0.0917 M⁻¹ s⁻¹.

B5: GkOYE (Geobacillus kaustophilus HTA426; Q102A/R215A/R308A/Y169W) (protein)
chain: MNTMLFSPYTIRGLTLKNRIVMSPMCMYSCDTKDGAVRTWHKIHYPARAVGQVGLIIVEATGVTPQGRISERDLGIWSDDHIAGLRELVGLVKEHGAAIGIALAHAGRKSQVPGEIIAPSAVPFDDSSPTPKEMTKADIEETVQAFQNGARRAKEAGFDVIEIHAAHGWLINEFLSPLSNRRQDEYGGSPENRYRFLGEVIDAVREVWDGPLFVAISASDYHPDGLTAKDYVPYAKRMKEQGVDLVDVSSGAIVPARMNVYPGYQVPFAELIRREADIPTGAVGLITSGWQAEEILQNGRADLVFLGAELLRNPYWPYAAARELGAKISAPVQYERGWRF
notes: as for B2
B5 gave a Km ([1]; GkOYE.12, MBH reaction) of 17.28 mM, a kcat ([1]; GkOYE.12, MBH reaction) of 1.52 h⁻¹ and a kcat/Km ([1]; GkOYE.12, MBH reaction) of 0.025 M⁻¹ s⁻¹. For the same protein, the Km ([2]; GkOYE.12, MBH reaction) was 4.50 mM, the kcat ([2]; GkOYE.12, MBH reaction) was 0.60 h⁻¹ and the kcat/Km ([2]; GkOYE.12, MBH reaction) was 0.0361 M⁻¹ s⁻¹.
